Test results as given in patent US7732151B2, “Use of IRS-polypeptides for identifying of pharmaceutically active compounds” (Sanofi-Aventis Deutschland GmbH, priority 2003, dated 2010).

How the values were obtained:
[1] = target: T1, rat liver insulin receptor (WGA-IR) (Rattus norvegicus, UniProt P15127); assay: ALPHAScreen: phosphorylation of biotinylated IRS-1 fragment by wheat germ lectin affinity-purified rat liver insulin receptor; format: biochemical; settings: 85 nM biotinylated IRS fragment, 50 μM ATP, 30° C. for 30 minutes, p-Tyr antibody detection, FIG. 4
T1 construct: tissue Sigma (named as alternative source) 70543; host or cells: rat liver
T1 sequence (P15127 27-759 limits assumed): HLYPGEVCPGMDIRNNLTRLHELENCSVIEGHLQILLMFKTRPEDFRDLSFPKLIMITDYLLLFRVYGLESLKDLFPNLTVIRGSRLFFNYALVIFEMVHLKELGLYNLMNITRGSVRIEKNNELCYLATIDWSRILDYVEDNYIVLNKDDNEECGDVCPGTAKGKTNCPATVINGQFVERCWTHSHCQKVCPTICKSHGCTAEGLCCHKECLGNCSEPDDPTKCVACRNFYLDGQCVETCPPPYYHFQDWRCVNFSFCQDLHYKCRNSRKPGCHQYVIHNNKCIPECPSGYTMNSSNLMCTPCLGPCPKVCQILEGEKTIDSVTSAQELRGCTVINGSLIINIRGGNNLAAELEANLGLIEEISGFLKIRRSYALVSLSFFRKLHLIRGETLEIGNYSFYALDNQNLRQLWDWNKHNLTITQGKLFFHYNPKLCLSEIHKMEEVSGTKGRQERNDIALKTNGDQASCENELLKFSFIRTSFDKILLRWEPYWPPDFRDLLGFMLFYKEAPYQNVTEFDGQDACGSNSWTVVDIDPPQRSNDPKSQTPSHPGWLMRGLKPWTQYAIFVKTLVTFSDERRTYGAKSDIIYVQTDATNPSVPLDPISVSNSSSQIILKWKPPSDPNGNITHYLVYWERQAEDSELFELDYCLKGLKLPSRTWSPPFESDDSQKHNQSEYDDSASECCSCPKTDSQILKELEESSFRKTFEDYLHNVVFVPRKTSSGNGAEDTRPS
T1 sequence (P15127 764-1383 partner limits assumed): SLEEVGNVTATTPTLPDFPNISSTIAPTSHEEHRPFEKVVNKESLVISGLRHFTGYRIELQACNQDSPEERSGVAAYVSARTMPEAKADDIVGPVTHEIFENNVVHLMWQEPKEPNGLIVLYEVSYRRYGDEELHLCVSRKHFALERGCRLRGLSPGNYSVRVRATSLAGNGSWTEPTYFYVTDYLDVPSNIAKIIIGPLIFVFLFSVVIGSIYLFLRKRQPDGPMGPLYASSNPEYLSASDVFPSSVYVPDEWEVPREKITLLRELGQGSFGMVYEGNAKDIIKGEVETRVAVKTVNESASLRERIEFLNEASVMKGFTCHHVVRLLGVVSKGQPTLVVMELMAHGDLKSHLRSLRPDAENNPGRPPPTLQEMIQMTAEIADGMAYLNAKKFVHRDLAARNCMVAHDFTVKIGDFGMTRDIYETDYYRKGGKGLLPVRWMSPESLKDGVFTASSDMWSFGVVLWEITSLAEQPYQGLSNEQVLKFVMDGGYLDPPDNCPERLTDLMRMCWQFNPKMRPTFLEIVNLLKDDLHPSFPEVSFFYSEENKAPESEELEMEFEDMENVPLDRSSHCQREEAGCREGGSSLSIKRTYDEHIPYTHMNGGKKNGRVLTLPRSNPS
Excerpt: The measurement of the kinase activity using ALPHAScreen™ from Perkin-Elmer Life Sciences, which is particularly expedient for the purposes of the present invention, takes place for example by the kinase to be investigated phosphorylating a biotinylated peptide in a biochemical mixture in the presence of ATP. The phosphorylated peptide is then bound by a specific anti-phospho antibody to which protein A-conjugated acceptor beads or provided with suitable second antibodies are coupled. The same mixture contains streptavidin-coupled donor beads which bind the biotin portion of the peptide. The binding to the peptide brings acceptor beads and donor beads in direct vicinity, starting a cascade of chemical reactions which generate a highly amplified, detectable luminescence signal: a photosensitizer in the donor bead is excited by laser excitation to convert oxygen in the surroundings into a singlet status. The singlet oxygen then diffuses to the acceptor bead where it excites a thioxene derivative which thus emits a chemiluminescence with a wavelength of 370 nm, which in turn excites further fluorophores in the acceptor bead to luminesce light with wavelengths of 520 to 620 nm. Since excitation of the fluorophores by singlet oxygen takes place only when donor bead and acceptor bead are in close vicinity, only then are detectable signals generated. […]

[2] = kinetic constant as enzyme substrate; cited from earlier work

EC50 [1]	Molecule	Km [2]
10 nM	insulin: human insulin, peptide hormone, commercially available from Sigma under order number I-9266	–
–	IRS-1: insulin receptor substrate 1 polypeptide used as kinase substrate (protein, listed as Homo sapiens) MASPPESDGFSDVRKVGYLRKPKSMHKRFFVLRAASEAGGPARLEYYENEKKWRHKSSAPKRSIPLESCFNINKRADSKNKHLVALYTRDEHFAIAADSEAEQDSWYQALLQLHNRAKGHHDGAAALGAGGGGGSCSGSSGLGEAGEDLSYGDVPPGPAFKEVWQVILKPKGLGQTKNLIGIYRLCLTSKTISFVKLNSEAAAVVLQLMNIRRCGHSENFFFIEVGRSAVTGPGEFWMQVDDSVVAQNMHETILEAMRAMSDEFRPRSKSQSSSNCSNPISVPLRRHHLNNPPPSQVGLTRRSRTESITATSPASMVGGKPGSFRVRASSDGEGTMSRPASVDGSPVSPSTNRTHAHRHRGSARLHPPLNHSRSIPMPASRCSPSATSPVSLSSSSTSGHGSTSDCLFPRRSSASVSGSPSDGGFISSDEYGSSPCDFRSSFRSVTPDSLGHTPPARGEEELSNYICMGGKGPSTLTAPNGHYILSRGGNGHRCTPGTGLGTSPALAGDEAASAADLDNRFRKRTHSAGTSPTITHQKTPSQSSVASIEEYTEMMPAYPPGGGSGGRLPGHRHSAFVPTRSYPEEGLEMHPLERRGGHHRPDSSTLHTDDGYMPMSPGVAPVPSGRKGSGDYMPMSPKSVSAPQQIINPIRRHPQRVDPNGYMMMSPSGGCSPDIGGGPSSSSSSSNAVPSGTSYGKLWTNGVGGHHSHVLPHPKPPVESSGGKLLPCTGDYMNMSPVGDSNTSSPSDCYYGPEDPQHKPVLSYYSLPRSFKHTQRPGEPEEGARHQHLRLSTSSGRLLYAATADDSSSSTSSDSLGGGYCGARLEPSLPHPHHQVLQPHLPRKVDTAAQTNSRLARPTRLSLGDPKASTLPRAREQQQQQQPLLHPPEPKSPGEYVNIEFGSDQSGYLSGPVAFHSSPSVRCPSQLQPAPREEETGTEEYMKMDLGPGRRAAWQESTGVEMGRLGPAPPGAASICRPTRAVPSSRGDYMTMQMSCPRQSYVDTSPAAPVSYADMRTGIAAEEVSLPRATMAAASSSSAASASPTGPQGAAELAAHSSLLGGPQGPGGMSAFTRVNLSPNRNQSAKVIRADPQGCRRRHSSETFSSTPSATRVGNTVPFGAGAAVGGGGGSSSSSEDVKRHSSASFENVWLRPGELGGAPKEPAKLCGAAGGLENGLNYIDLDLVKDFKQCPQECTPEPQPPPPPPPHQPLGSGESSSTRRSSEDLSAYASISFQKQPEDRQ	19 µM
